Test results taken from US20030129296A1.
Blank lines part the entries; values can stand above or below the substance they belong to.

What was measured:
[1] = molecular target: Cy3-labeled mouse monoclonal antibody (Amersham) (mouse); experiment: fluorescence imaging of 0.8 µm capture particles on epoxy-hydrogel slides; dilution series of the Cy3-labeled target, overnight incubation
[2] = molecular target: mouse IgG labeled with Alexa Fluor 488 (Molecular Probes, Inc., A-11243 anti-biotin, mouse monoclonal 2F5, Alexa Fluor 488 conjugate) (mouse); experiment: fluorescence imaging of film-immobilized capture particles; labeled target at 100 nM, 2 h
[3] = molecular target: mouse IgG labeled with Alexa Fluor 488 (Molecular Probes, Inc., A-11243 anti-biotin, mouse monoclonal 2F5, Alexa Fluor 488 conjugate) (mouse); experiment: fluorescence imaging of film-immobilized capture particles; labeled target at 10 nM, 2 h
[4] = molecular target: mouse IgG labeled with Alexa Fluor 488 (Molecular Probes, Inc., A-11243 anti-biotin, mouse monoclonal 2F5, Alexa Fluor 488 conjugate) (mouse); experiment: fluorescence imaging of film-immobilized capture particles; labeled target at 1 nM, 2 h
[5] = molecular target: mouse IgG labeled with Alexa Fluor 488 (Molecular Probes, Inc., A-11243 anti-biotin, mouse monoclonal 2F5, Alexa Fluor 488 conjugate) (mouse); experiment: fluorescence imaging of film-immobilized capture particles, film background subtracted; labeled target at 100 nM, 2 h
[6] = molecular target: mouse IgG labeled with Alexa Fluor 488 (Molecular Probes, Inc., A-11243 anti-biotin, mouse monoclonal 2F5, Alexa Fluor 488 conjugate) (mouse); experiment: net median particle fluorescence divided by that of the blank (0 nM) particles; labeled target at 10 nM, 2 h
[7] = molecular target: mouse IgG labeled with Alexa Fluor 488 (Molecular Probes, Inc., A-11243 anti-biotin, mouse monoclonal 2F5, Alexa Fluor 488 conjugate) (mouse); experiment: fluorescence imaging of film-immobilized capture particles, film background subtracted; labeled target at 10 nM, 2 h
[8] = molecular target: mouse IgG labeled with Alexa Fluor 488 (Molecular Probes, Inc., A-11243 anti-biotin, mouse monoclonal 2F5, Alexa Fluor 488 conjugate) (mouse); experiment: net median particle fluorescence divided by that of the blank (0 nM) particles; labeled target at 100 nM, 2 h
[9] = molecular target: mouse IgG labeled with Alexa Fluor 488 (Molecular Probes, Inc., A-11243 anti-biotin, mouse monoclonal 2F5, Alexa Fluor 488 conjugate) (mouse); experiment: net median particle fluorescence divided by that of the blank (0 nM) particles; labeled target at 1 nM, 2 h
[10] = molecular target: mouse IgG labeled with Alexa Fluor 488 (Molecular Probes, Inc., A-11243 anti-biotin, mouse monoclonal 2F5, Alexa Fluor 488 conjugate) (mouse); experiment: fluorescence imaging of film-immobilized capture particles, film background subtracted; labeled target at 1 nM, 2 h
[11] = molecular target: mouse IgG labeled with Alexa Fluor 488 (Molecular Probes, Inc., A-11243 anti-biotin, mouse monoclonal 2F5, Alexa Fluor 488 conjugate) (mouse); experiment: ratio of particle fluorescence to film background fluorescence; labeled target at 100 nM, 2 h
[12] = molecular target: mouse IgG labeled with Alexa Fluor 488 (Molecular Probes, Inc., A-11243 anti-biotin, mouse monoclonal 2F5, Alexa Fluor 488 conjugate) (mouse); experiment: ratio of particle fluorescence to film background fluorescence; labeled target at 10 nM, 2 h
[13] = molecular target: mouse IgG labeled with Alexa Fluor 488 (Molecular Probes, Inc., A-11243 anti-biotin, mouse monoclonal 2F5, Alexa Fluor 488 conjugate) (mouse); experiment: ratio of particle fluorescence to film background fluorescence; labeled target at 1 nM, 2 h

- detection level [1]: 1 pM
Substance: 0.8-µm-diameter particles coated with goat-anti-mouse antibody

- Particle Fluorescence Rate, Average [2]: 50.7 cps
- Particle Fluorescence Rate, Maximum [2]: 74.1 cps
- Particle Fluorescence Rate, Median [2]: 50.8 cps
- Particle Fluorescence Rate, Minimum [2]: 34.1 cps
- Particle Fluorescence Rate, Average [3]: 44.5 cps
- Particle Fluorescence Rate, Maximum [3]: 66.2 cps
- Particle Fluorescence Rate, Median [3]: 46.4 cps
- Particle Fluorescence Rate, Minimum [3]: 12 cps
- Particle Fluorescence Rate, Average [4]: 29.6 cps
- Particle Fluorescence Rate, Maximum [4]: 62.6 cps
- Particle Fluorescence Rate, Median [4]: 28.1 cps
- Particle Fluorescence Rate, Minimum [4]: 14.8 cps
- Net Median Particle Fluorescence, MPF [5]: 43 cps
- MPF/MPF0 [6]: 99.5
- Net Median Particle Fluorescence, MPF [7]: 40 cps
- MPF/MPF0 [8]: 107
- MPF/MPF0 [9]: 58.2
- Net Median Particle Fluorescence, MPF [10]: 23 cps
- MPF/FBF [11]: 6.41
- MPF/FBF [12]: 7.45
- MPF/FBF [13]: 5.97
Substance: goat anti-mouse IgG(Fc) coated particles, 3.2 µm in diameter (Spherotech, Inc., MPFc-30-5) (antibody)
